Test results published in the supplement of paper PMC10567573.

B1: EHMT1 (parent)
chain: SARQGELQKVLLMLVDGIDPNFKM
B2: TMEM175 (parent)
chain: QTSAFARQPRDELERVRVSCTIIF

Variants of: B1
Assay: protein stability index of a GFP-peptide fusion (GPS, HEK-293T) (PSI 1-6); higher = more stable
Conditions: c terminus: a fixed tail appended
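Further: lentivirally expressed fusions sorted by FACS into six bins by GFP to DsRed ratio, PSI derived from sequencing read proportions per bin multiplied by bin number.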

Protein stability index of substitutions, site by site:
Q8: L 3.28 | T 2.02 | N 2.23 | G 2.25 | D 1.43 | E 2.73 | P 1.76 | I 2.01 | F 3.86 | K 1.57 | Y 1.76 | S 1.87
K9: F 3.96 | D 1.62 | H 1.62 | T 2.9 | Q 2.37 | P 1.95 | S 2.79 | A 2.51 | R 1.68
G5: N 2.26 | R 3.6 | T 3.12 | S 1.64 | A 2.65 | E 1.59 | D 1.94 | H 1.97 | I 3.95 | M 3.61 | Y 1.92 | C 1.79 | P 3.53
D19: T 3.29 | H 3.59 | A 3.05 | Y 2.73 | G 2.8 | K 1.81 | N 1.64 | E 1.5 | S 2.5 | W 2.35
L7: H 3.17 | F 1.04 | I 2.81 | E 2.35 | S 1.43 | M 1.27 | N 1.36 | V 1.03 | Y 1.5 | D 2.19 | K 1.67 | T 1.62 | P 1.84 | A 1.91 | Q 1.7 | R 2.12 | G 1.59
S1: Y 1.45 | K 2.31 | W 2.93 | I 1.39 | N 2.67 | L 1.03 | Q 2.03 | C 2.34 | T 2.12 | E 1.66 | D 1.18 | P 1.83 | G 2.05 | M 1.42
V15: E 2.54 | I 1.72 | F 3.86 | N 2.56 | T 1.26 | G 2 | Q 2.17 | S 1.83 | Y 1.68 | H 1.66 | P 2.39 | W 2.75 | A 2.07 | M 1.59 | D 2.69 | C 1.64 | R 1.65 | L 1.49
A2: Q 1.78 | C 3.59 | T 3.06 | P 2.31 | G 1.02 | N 3.47 | M 2.95 | E 1.86 | D 1.61 | H 2.27 | L 3.91 | I 2.21 | V 1.75 | K 1.22 | S 3.14
L11: Y 1.65 | C 1.99 | Q 2.19 | N 3.23 | T 2.36 | I 2.1 | V 2.7 | K 2.69 | H 2.15 | F 2.49 | A 2.11 | R 2.53 | S 2.45 | G 3.6 | D 3.35
M13: R 1.73 | S 2 | F 1.83 | L 2.11 | E 3.12 | T 2.35 | K 1.89 | H 1.88 | Q 2.09 | G 2.37 | P 3.74 | Y 2.47 | D 2.97 | N 2.46
N21: K 1.96 | W 3.96 | Y 2.93 | L 3.55 | D 1.41 | G 3.57 | H 1.97 | Q 1.41 | M 2.24 | T 1.98 | R 1.26 | I 1.93
V10: W 1.77 | Q 1.72 | K 2.47 | L 1.25 | A 2.33 | S 2.29 | H 2.16 | P 2.43 | D 3.36 | R 1.88 | T 1.99 | G 1.94 | Y 3.4 | E 3.02 | C 1.77 | F 4.02 | I 2.01
I18: A 1.18 | N 2.24 | V 1.59 | H 2.42 | S 1.97 | Q 3.19 | T 2.22 | L 2.07 | Y 2.76 | K 1.46 | P 1.06 | E 2.49 | F 1.81 | C 2.47 | W 2.54 | D 2.22 | R 1.66
L14: G 2.36 | C 1.46 | R 2.61 | S 3.03 | I 1.98 | V 2.53 | W 1.79 | K 2.74 | N 3.02 | F 1.93 | Q 2.54 | T 1.7 | H 2.38 | E 3.22 | Y 1.76 | M 3.99
F22: C 1.82 | R 1.52 | N 1.56 | Y 1.39 | L 1.83 | A 1.65 | P 1.76 | K 1.89 | M 1.13 | V 1.18 | G 2.71 | I 2.09 | Q 1.76 | H 1.56 | T 2.21 | W 2.49 | S 2.71
G17: V 3.87 | Q 1.61 | F 3.49 | M 1.78 | P 1.97 | N 2.78 | S 2.3 | L 2.07 | E 2.08 | D 1.36
D16: N 2.72 | V 2.27 | I 1.69 | C 1.61 | K 2.45 | W 1.96 | L 2.31 | Q 2.49 | F 1.6 | T 2.8 | A 2.11 | M 2.7
E6: M 2.91 | T 2.4 | N 2.15 | D 1.69 | Q 1.87 | H 2.02 | W 1.89 | S 2.6 | F 2.34 | P 2.45 | I 3.51 | Y 3.65
M24: P 2.6 | R 1.8 | D 3.33 | E 2.18 | A 2.04 | I 1.77 | Y 1.9 | C 2.05 | G 1.23 | L 1.93 | K 2.42 | N 1.48 | T 1.42
R3: E 2.2 | F 1.86 | T 1.76 | S 1.75 | I 2.15 | C 1.83 | K 2.8 | N 2.38 | H 1.5 | A 1.96 | G 1.86 | Y 1.88 | D 1.78 | Q 2.25 | P 2.83 | L 2.39
L12: P 3.64 | T 1.28 | A 1.4 | E 3.04 | F 3.06 | R 2.12 | M 3.16 | D 2.79 | S 2.18 | C 2.31 | G 2.15 | H 2.39 | Q 2.02 | V 1.66 | K 1.12
K23: L 1.88 | E 1.21 | P 2.18 | N 1.3 | A 2.4 | H 2.78 | T 2.02 | Y 1.94 | I 1.59 | G 1.19 | R 2.82 | V 2.81
P20: T 1.27 | M 2.91 | F 2.59 | K 1.76 | D 1.43 | H 1.75 | Q 1.83 | G 1.09 | R 1.5 | A 2.66
Q4: N 1.6 | D 1.61 | F 3.15 | A 2.27 | L 3.17 | P 2.15 | M 3.05 | T 2.01 | E 1.94 | G 1.83 | I 2.56 | Y 1.94 | S 1.53 | K 1.35

Variants of: B2
Assay: as above
Conditions: c terminus: a fixed tail appended

Protein stability index, by site and new letter:
Q1: A 3.97 | D 1.63 | E 2.25 | F 3.36
